From patent publication US20230250135A1

Biological target: trimeric stem polypeptides with H7 like residues at the beta2/beta3 loop, A-helix and lower part of the stem (FIG. 13A)
Assay: Binding-AlphaLISA, Expi293F supernatant, normalized to UFV172561

Sequence of CR9114 (antibody) (VH): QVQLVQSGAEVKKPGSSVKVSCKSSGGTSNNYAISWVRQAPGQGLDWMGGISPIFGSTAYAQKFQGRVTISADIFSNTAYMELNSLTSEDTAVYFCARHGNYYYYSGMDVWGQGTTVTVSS
Sequence of CR9114 (antibody) (VL): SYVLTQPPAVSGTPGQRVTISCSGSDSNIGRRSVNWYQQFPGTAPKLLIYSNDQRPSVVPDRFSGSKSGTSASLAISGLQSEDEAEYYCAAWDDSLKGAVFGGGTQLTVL

Question: How did the variation in antibody binding relative to reference UFV172561 turn out when CR9114 (antibody) was run?
Answer: The variation in antibody binding relative to reference UFV172561 was 20%.
